{
  "source": "paper PMC6987225",
  "about": "“Eukaryotic transcription factors can track and control their target genes using DNA antennas”",
  "binders": {"B1": {"name": "75 bp CGTGTT shuffled (m5) (dsDNA)", "DNA 1": "GCTCGACATAGATCTGACTGACATGCTATCAGTCTACGTGTTCAGTCTAGCTGTGCATCGATCTATACATCTAGC", "DNA 2": "GCTAGATGTATAGATCGATGCACAGCTAGACTGAACACGTAGACTGATAGCATGTCAGTCAGATCTATGTCGAGC"}, "B2": {"name": "75 bp TAATTG high G/C (m3) (dsDNA)", "DNA 1": "CCCCCTCCCACCCCTCCACCCCCTCCCCTCCCCCCCTAATTGCCCTCCCCTCCCCCACCCCCTCCCCCACCCCCT", "DNA 2": "AGGGGGTGGGGGAGGGGGTGGGGGAGGGGAGGGCAATTAGGGGGGGAGGGGAGGGGGTGGAGGGGTGGGAGGGGG"}, "B3": {"name": "150 bp TAATTG (m6) (dsDNA)", "DNA 1": "TTCTTAACCAAATTGAATTCTCGCCACCGATCGTGTTCGCCCGAAATAAATCTGGCCGAAAAGCCATCAATCTATAATTGCAATCTAACTGTGCCTCGGTTTATACCTCCAACTGCCGTTCACCGAAAAGGCCGACAGTTTTCCGACAAA", "DNA 2": "TTTGTCGGAAAACTGTCGGCCTTTTCGGTGAACGGCAGTTGGAGGTATAAACCGAGGCACAGTTAGATTGCAATTATAGATTGATGGCTTTTCGGCCAGATTTATTTCGGGCGAACACGATCGGTGGCGAGAATTCAATTTGGTTAAGAA"}, "B4": {"name": "150 bp TAATTG half original/half shuffled (m8) (dsDNA)", "DNA 1": "TACTCATCGATACTCAGTACTCGCGACGCATCGTGTACGCCCGAAATAAATCTGGCCGAAAAGCCATCAATCTATAATTGCAATCTAACTGTGCCTCGGTTTATACCTCCAACTGCAGTACACTGATATGACAGACAGTATGCTCACATA", "DNA 2": "TATGTGAGCATACTGTCTGTCATATCAGTGTACTGCAGTTGGAGGTATAAACCGAGGCACAGTTAGATTGCAATTATAGATTGATGGCTTTTCGGCCAGATTTATTTCGGGCGTACACGATGCGTCGCGAGTACTGAGTATCGATGAGTA"}, "B5": {"name": "38 bp TAATTG (dsDNA)", "DNA 1": "AAAAGCCATCAATCTATAATTGCAATCTAACTGTGCCT", "DNA 2": "AGGCACAGTTAGATTGCAATTATAGATTGATGGCTTTT"}, "B6": {"name": "150 bp TAATTG shuffled (m7) (dsDNA)", "DNA 1": "TACTCATCGATACTCAGTACTCGCGACGCATCGTGTACGCGCGACATACATCTCACTGATACGCGATCACTCTATAATTGCACTCTATCTGTGCATCGCTCTATAGCTCTATCTGCAGTACACTGATATGACAGACAGTATGCTCACATA", "DNA 2": "TATGTGAGCATACTGTCTGTCATATCAGTGTACTGCAGATAGAGCTATAGAGCGATGCACAGATAGAGTGCAATTATAGAGTGATCGCGTATCAGTGAGATGTATGTCGCGCGTACACGATGCGTCGCGAGTACTGAGTATCGATGAGTA"}, "B7": {"name": "75 bp TAATTG (m2) (dsDNA)", "DNA 1": "GCCCGAAATAAATCTGGCCGAAAAGCCATCAATCTATAATTGCAATCTAACTGTGCCTCGGTTTATACCTCCAAC", "DNA 2": "GTTGGAGGTATAAACCGAGGCACAGTTAGATTGCAATTATAGATTGATGGCTTTTCGGCCAGATTTATTTCGGGC"}, "B8": {"name": "75 bp CGTGTT (m4) (dsDNA)", "DNA 1": "B7 DNA 1 with T37C, A38G, A39T, T40G, G42T", "DNA 2": "B7 DNA 2 with C34A, A36C, T37A, T38C, A39G"}, "B9": {"name": "75 bp TAATTA (m1) (dsDNA)", "DNA 1": "B7 DNA 1 with G42A", "DNA 2": "B7 DNA 2 with C34T"}, "B10": {"name": "75 bp GAATTG (dsDNA)", "DNA 1": "B7 DNA 1 with T37G", "DNA 2": "B7 DNA 2 with A39C"}, "B11": {"name": "75 bp TAATTT (dsDNA)", "DNA 1": "B7 DNA 1 with G42T", "DNA 2": "B7 DNA 2 with C34A"}, "B12": {"name": "75 bp TATATA (dsDNA)", "DNA 1": "B7 DNA 1 with A39T, T40A, G42A", "DNA 2": "B7 DNA 2 with C34T, A36T, T37A"}},
  "details_in_all_cases": "protein: recombinant; tags: C-terminal Cys added, labeled with Alexa 488 C5-maleimide; blunt",
  "key": {"[1]": {"target": "T1, EngHD (Engrailed homeodomain, DNA-binding domain) (Drosophila melanogaster, UniProt P02836 454-513)", "T1 sequence": "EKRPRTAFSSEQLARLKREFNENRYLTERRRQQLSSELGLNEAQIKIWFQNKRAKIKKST", "experiment": "FCS; minimal difference from N7; FCS, ~1 nM Alexa 488-EngHD with unlabeled dsDNA titrated; ionic strength 50 mM (NaCl) unless stated; buffer, pH and temperature not in the material"}, "[2]": {"target": "T1, EngHD (Engrailed homeodomain, …)", "experiment": "FCS; 50 mM ionic strength; FCS, ~1 nM Alexa 488-EngHD with unlabeled dsDNA titrated; ionic strength 50 mM (NaCl) unless stated; buffer, pH and temperature not in the material"}, "[3]": {"target": "T1, EngHD (Engrailed homeodomain, …)", "experiment": "FCS; 50 mM ionic strength; FCS, ~1 nM Alexa 488-EngHD with unlabeled dsDNA titrated; ionic strength 50 mM (NaCl) unless stated; buffer, pH and temperature not in the material", "remark": "listed apart in the source"}, "[4]": {"target": "T1, EngHD (Engrailed homeodomain, …)", "experiment": "FCS; affinity unchanged vs N8; FCS, ~1 nM Alexa 488-EngHD with unlabeled dsDNA titrated; ionic strength 50 mM (NaCl) unless stated; buffer, pH and temperature not in the material"}, "[5]": {"target": "T1, EngHD (Engrailed homeodomain, …)", "experiment": "FCS; 50 mM ionic strength; FCS, ~1 nM Alexa 488-EngHD with unlabeled dsDNA titrated; ionic strength 50 mM (NaCl) unless stated; buffer, pH and temperature not in the material", "remark": "listed apart in the source"}, "[6]": {"target": "T1, EngHD (Engrailed homeodomain, …)", "experiment": "FCS; 50 mM ionic strength; FCS, ~1 nM Alexa 488-EngHD with unlabeled dsDNA titrated; ionic strength 50 mM (NaCl) unless stated; buffer, pH and temperature not in the material", "remark": "listed apart in the source"}, "[7]": {"target": "T1, EngHD (Engrailed homeodomain, …)", "experiment": "FCS; 50 mM ionic strength; FCS, ~1 nM Alexa 488-EngHD with unlabeled dsDNA titrated; ionic strength 50 mM (NaCl) unless stated; buffer, pH and temperature not in the material", "remark": "listed apart in the source"}, "[8]": {"target": "T1, EngHD (Engrailed homeodomain, …)", "experiment": "FCS; 50 mM ionic strength; FCS, ~1 nM Alexa 488-EngHD with unlabeled dsDNA titrated; ionic strength 50 mM (NaCl) unless stated; buffer, pH and temperature not in the material", "remark": "listed apart in the source"}},
  "note": "Where a chain is given by its changes, count along the chain named.",
  "data": [
    {"binder": "B1", "values": [
      {"measurement": "binding result", "setting": "[1]", "result": "binds"}
    ]},
    {"binder": "B2", "values": [
      {"measurement": "Kd", "setting": "[2]", "result": "~700", "unit": "nM"}
    ]},
    {"binder": "B3", "values": [
      {"measurement": "binding signal", "setting": "[3]", "result": "~2 fold higher affinity than 75 bp TAATTG (N2)"}
    ]},
    {"binder": "B4", "values": [
      {"measurement": "binding result", "setting": "[4]", "result": "binds"}
    ]},
    {"binder": "B5", "values": [
      {"measurement": "Kd", "setting": "[5]", "result": "7.26 -log10 M"}
    ]},
    {"binder": "B6", "values": [
      {"measurement": "binding result", "setting": "[4]", "result": "binds"}
    ]},
    {"binder": "B7", "values": [
      {"measurement": "Kd", "setting": "[6]", "result": "7.44 -log10 M"}
    ]},
    {"binder": "B8", "values": [
      {"measurement": "binding signal", "setting": "[7]", "result": "22 fold lower affinity than TAATTA (N3)"}
    ]},
    {"binder": "B9", "values": [
      {"measurement": "Kd", "setting": "[8]", "result": "8.43 -log10 M"}
    ]},
    {"binder": "B10", "values": [
      {"measurement": "binding signal", "setting": "[7]", "result": "19 fold lower affinity than TAATTA (N3)"}
    ]},
    {"binder": "B11", "values": [
      {"measurement": "Kd", "setting": "[6]", "result": "7.79 -log10 M"}
    ]},
    {"binder": "B12", "values": [
      {"measurement": "binding signal", "setting": "[7]", "result": "~10 fold lower affinity than TAATTA (N3)"}
    ]}
  ]
}
